For three substances, percent of parent results are on record in paper PMC9904299.

The assay addresses mitochondrially targeted human MSRA tagged with tGFP at its C-terminus (targeting sequence of ornithine carbamoyltransferase fused to the N-terminus of MSRA). Put plainly: co-immunoprecipitation (anti-FLAG IP, anti-tGFP blot), band intensity quantitated with Odyssey infrared scanner. The conditions noted are these: HEK293 cells; 3 separate experiments; parent: est. 100; read off a plot.
In the case of FLAG-tagged human Ndufaf2 M85V, the percent of parent turned out to be 90%.

In the case of FLAG-tagged human Ndufaf2 M85V; M160V, the percent of parent was 36%. In the case of FLAG-tagged human Ndufaf2 M160V, the percent of parent was determined as 90%.
